Assay results reported in paper PMC7914713, “Elucidating the Importance of DOT1L Recruitment in MLL-AF9 Leukemia and Hematopoiesis” (Cancers, 2021).

Target: T1, MBP-AF9 (MBP carrier left out. The construct limits are not given; the C-terminal ANC1 homology domain (AHD), named as the DOT1L-binding domain, is taken by convention as about 500-568.)
T1 chain: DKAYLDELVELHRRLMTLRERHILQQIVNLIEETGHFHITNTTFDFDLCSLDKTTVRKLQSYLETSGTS
Experiment: fluorescence polarisation; competitive: serial dilutions of peptide with fixed MBP-AF9 (200 nM) and N-Flu-DOT1L (10 nM); 100 mM NaH2PO4, 150 mM NaCl, 0.1% β-ME, 0.01% Triton X-100; room temperature, 3 h
Conditions: both partners purified

B1: DOT1L WT 10mer (865–874) peptide (peptide, UniProt Q8TEK3 865-874, looked up)
peptide: LPISIPLSTV
notes: the DOT1L constructs of the cell lines are human; also called 10mer peptide from residues 865–874; 10mer DOT1L peptide; source: synthetic peptide
- Ki: 20 nM
